Measured values taken from patent US20180030151A1 (MOGAM INSTITUTE FOR BIOMEDICAL RESEARCH, published 2018).
Substitutions are numbered along the chain they refer to.

B1: clone 1021 (antibody, V domains shown)
VH: EVQLVESGGGLVKPGGSLRLSCAASGFTFSSYAMNWVRQAPGKGLEWVSTITTGGSYTYYADSVDGRFTISRDNAKNSLYLQMNSLRAEDTAVYYCARQDGHFLMDYWGQGTLVTVSS
VL: DVVMTQTPLSLPVTLGQPASISCKSSQSLLDIDGKTYLNWLQQRPGQSPKRLIYLVSKLDSGVPDRFTGSGSGTDFTLKISRVEAEDVGVYYCWQGTHFPFTFGQGTKVEIKR
B2: clone 3007 (antibody, V domains shown)
VH: B1 VH with S30T, T53L, D65Q, H102N
VL: B1 VL with I32L
B3: clone 3016 (antibody, V domains shown)
VH: B1 VH with Y57H, D65E, H102N
VL: B1 VL with I32S, F99L
B4: clone 3024 (antibody, V domains shown)
VH: B1 VH with N35S, D65Q, H102N
VL: B1 VL with I32S, F99L
B5: clone 3131 (antibody, V domains shown)
VH: B1 VH with N35S, D65Q, H102Q
VL: B1 VL
B6: clone 3115 (antibody, V domains shown)
VH: B1 VH with S49G, Y57H, H102N
VL: B1 VL with I32V
B7: clone 3120 (antibody, V domains shown)
VH: B1 VH with D65E, H102Y
VL: B1 VL
B8: clone 4141 (antibody, V domains shown)
VH: B1 VH with S49G, Y57H, D65E, H102Y
VL: B1 VL with I32V

The binders below were run against T1, recombinant human TFPI (tissue factor pathway inhibitor) (human, UniProt P10646 29-304) (assay: cell-based or functional assay).
For B1, the “FXa assay % of FXa alone, 2.5 nM Ab, 10 nM TFPI” value was 4.7%, the “FXa assay % of FXa alone, 10 nM Ab, 10 nM TFPI” value was 32.9% and the “FXa assay % of FXa alone, 20 nM Ab, 10 nM TFPI” value was 78.7%. For the same binder, the “FXa assay OD, 2.5 nM Ab, 10 nM TFPI” value was 0.034, the “FXa assay OD, 10 nM Ab, 10 nM TFPI” value was 0.236 and the “FXa assay OD, 20 nM Ab, 10 nM TFPI” value was 0.566.
With B2 the “FXa assay % of FXa alone, 2.5 nM Ab, 10 nM TFPI” value was 3.5%, the “FXa assay % of FXa alone, 5 nM Ab, 10 nM TFPI” value was 3.6% and the “FXa assay % of FXa alone, 10 nM Ab, 10 nM TFPI” value was 3.6%. For the same binder, the “FXa assay % of FXa alone, 20 nM Ab, 10 nM TFPI” value was 3%.
For B3, the “FXa assay % of FXa alone, 2.5 nM Ab, 10 nM TFPI” value was 3.7%, the “FXa assay % of FXa alone, 5 nM Ab, 10 nM TFPI” value was 4.8% and the “FXa assay % of FXa alone, 10 nM Ab, 10 nM TFPI” value was 6.3%. The “FXa assay % of FXa alone, 20 nM Ab, 10 nM TFPI” value was 14.2% and the “FXa assay OD, 20 nM Ab, 10 nM TFPI” value was 0.102.
With B4 the “FXa assay % of FXa alone, 2.5 nM Ab, 10 nM TFPI” value was 3.6%, the “FXa assay % of FXa alone, 5 nM Ab, 10 nM TFPI” value was 4.2% and the “FXa assay % of FXa alone, 10 nM Ab, 10 nM TFPI” value was 6.6%. For the same binder, the “FXa assay % of FXa alone, 20 nM Ab, 10 nM TFPI” value was 32.5%, the “FXa assay OD, 2.5 nM Ab, 10 nM TFPI” value was 0.026 and the “FXa assay OD, 20 nM Ab, 10 nM TFPI” value was 0.234.

Biological target: T1, recombinant human TFPI (tissue factor …)
Assay: cell-based or functional assay
Remark: another data set of the same source
In the case of B5, the “FXa assay % of FXa alone, 2.5 nM Ab, 10 nM TFPI” value is reported as 6.6%, the “FXa assay % of FXa alone, 5 nM Ab, 10 nM TFPI” value is reported as 7.7% and the “FXa assay % of FXa alone, 10 nM Ab, 10 nM TFPI” value is reported as 14.9%. For the same binder, the “FXa assay % of FXa alone, 20 nM Ab, 10 nM TFPI” value was 61.6%, the “FXa assay OD, 10 nM Ab, 10 nM TFPI” value was 0.115 and the “FXa assay OD, 20 nM Ab, 10 nM TFPI” value was 0.474.
With B6 the “FXa assay % of FXa alone, 2.5 nM Ab, 10 nM TFPI” value was 6.2%, the “FXa assay % of FXa alone, 5 nM Ab, 10 nM TFPI” value was 8.1% and the “FXa assay % of FXa alone, 10 nM Ab, 10 nM TFPI” value was 16.2%. The “FXa assay % of FXa alone, 20 nM Ab, 10 nM TFPI” value was 69.1%, the “FXa assay OD, 10 nM Ab, 10 nM TFPI” value was 0.125 and the “FXa assay OD, 20 nM Ab, 10 nM TFPI” value was 0.532.
In the case of B7, the “FXa assay % of FXa alone, 2.5 nM Ab, 10 nM TFPI” value is reported as 6.4%, the “FXa assay % of FXa alone, 5 nM Ab, 10 nM TFPI” value is reported as 9.1% and the “FXa assay % of FXa alone, 10 nM Ab, 10 nM TFPI” value is reported as 33.4%. For the same binder, the “FXa assay % of FXa alone, 20 nM Ab, 10 nM TFPI” value was 81.3%, the “FXa assay OD, 2.5 nM Ab, 10 nM TFPI” value was 0.0495 and the “FXa assay OD, 5 nM Ab, 10 nM TFPI” value was 0.07. The “FXa assay OD, 10 nM Ab, 10 nM TFPI” value was 0.258 and the “FXa assay OD, 20 nM Ab, 10 nM TFPI” value was 0.626.
B8 was tested, and the “FXa assay % of FXa alone, 2.5 nM Ab, 10 nM TFPI” value was 6.4%, the “FXa assay % of FXa alone, 5 nM Ab, 10 nM TFPI” value was 8.4% and the “FXa assay % of FXa alone, 10 nM Ab, 10 nM TFPI” value was 16.7%. For the same binder, the “FXa assay % of FXa alone, 20 nM Ab, 10 nM TFPI” value was 80.5%, the “FXa assay OD, 2.5 nM Ab, 10 nM TFPI” value was 0.0495 and the “FXa assay OD, 10 nM Ab, 10 nM TFPI” value was 0.129. The “FXa assay OD, 20 nM Ab, 10 nM TFPI” value was 0.62.
